Assay: yeast display, Sf9 membrane polyspecificity reagent, FACS + sequencing; frameworks hold sequencing errors
Outline: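 Synthetic nanobody libraries on Saccharomyces cerevisiae BJ5465 were galactose-induced for 36–48 hours, stained 1 hour at 4 °C with 10% biotinylated, detergent-solubilized Sf9 membrane reagent and enriched on streptavidin microbeads. FACS then separated cells into low and high (top ~1%) gates by anti-HA (expression) and streptavidin (reagent binding) fluorescence. Genes were colony-PCR amplified, MiSeq 2 × 250 sequenced and CDR-length filtered. A clone's polyreactivity label is that of its gate of origin.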

Sequence	polyreactivity (PSR sort gate)
QVQLVESGGGIVQAGGTLRLSCAASGSTFKNKAMGCNRHAPGKETEFVAGITRRGTSTYYADSVKGRFTISLDNAKNSVYLQMNSLKPEDTSVYYCAARAWYPSRYDYWGQGTLVTVSS	high polyreactivity
QVQLVESGGGIVQARGSLRLTSAASGITFQYYTMGWYRQAPGKERELVAGISDSDGDTYYADSVKGRFTISRDNAKKTVFLQMNSLKPEDTALYYCAADGYAYYRATTRFDYWGQGTQVTLSS	high polyreactivity
QVQLVESGGGIVQAVGSLRLSCAASGFTFFYYAMGWYRQAPGKERELVATISWNGGTTYYADSVKGRFTISRDNAKNTVYLQMNSLKPEDTAVYYCNARYDWTYLYDAGLVPGWDYDYWGQGTQLTVSS	low polyreactivity
QVQLVESGGGIVQSGGSLRLSFAASGSIVDWNAMGWYRQAPGKARELVASISSGGSTDYADSVKGRFTISRDNAKNTVYLQMNSLKPEDTAVYYCNADAYAYYPPRWYYGYDYWGQGTQVTVSS	low polyreactivity
QVQLVESGGGIYKAGGSLRLSCAASGSIIKINTLGRYRQAPRKERELVAAISTRGGSTYYADSVKGRFTISRDNSKNTVYLQMNSLKPDDTAVYFCAARQFYKYYYWGQGTQVTVSS	high polyreactivity
QVQLVESGGGKVQEGGSLRISCAASGSIFITYAMGWYRQAPGKERELVAAIRDSGDRTYYADSVKGRFTISRDNAKNTVYFQMNSLKPEDTAVYYCNARCQEPLKYDYWGQGTQVIVSS	low polyreactivity
QVQLVESGGGLAQAGGSLRLSCAASGSTFLYYAMGWYRQAPGKERELVDAIDSGGSTYYADSVKGRFTISRDNAKNTVYLQMNSLKPEDTAVYYCNADFADHWPPNGPGAHDYWGQGTQVTVSS	low polyreactivity
QVQLVESGGGLDQAGASLRLSCAASGRIYVVNAMGWYREAPGKEMELVATNTRSGGITFYPDSVKGRFTISRDNAKNTVYLQMNSLNPEVTAVYYCNADVLFYTYYTRGRFDFDYWGQGTQVTVSS	low polyreactivity
QVQLVESGGGLDQAGASLRLSCAASGSIFVPYTMGWYRQAPGKERELVASISYSGGTTYYADSVKGRFTISRDNAKYTVYLQMNSLKPEDTAVYYCAADWDDSYSYRRYRHYDYWGQGTQVTVSS	low polyreactivity
QVQLVESGGGLDQAGGRLRLICAASGRTFTTYAMGWNRQAPGKERELVASISRRGGSTYYADSVKGRFTISRDNAKNTVYLQMTSLKPEDTAVYYCAAKTGTYRGRQVYTYGYWGQGTQVTVSS	high polyreactivity
QVQLVESGGGLDQAGGRLRLSCAASGIIFPIYAMRLYRQAPGKERELVAGISTGGGGTYYADSVKGRFTISRDNAKNTVYLQMNSLKPEDSAVYYCSTSGPLYYSRNFDYWGQGTQVTVSS	low polyreactivity
QVQLVESGGGLDQAGGRLRLSCAASGSTFSYYAKSWYIQAPGKERELVARITWRGGSTNYADSVKGRFTISRDNAKNTVYLQMNSLKPEDTAVYYCATKLTSRVPFDYWGQGTQVTVSS	high polyreactivity
QVQLVESGGGLDQAGGSHRLSCAASGSNLSGYAMVWYRQAPGKERELVADISWTGGSTYYADSVKGRLTISRDNAKNTVYLQMISLKPEVTAVYYCATRSGYRRSRVIYYHDDYGYWGQGTQVTVSS	high polyreactivity
QVQLVESGGGLDQAGGSLGLSCAPSGRTFFPYAMGWSRQAPGKEREFVAAITKTDDSTYYADSVKGRFTISRDKAKNTVYLPMNSLKPEDTAVYYCIAGDTQIRFYYWGQGTQVTVSS	low polyreactivity
QVQLVESGGGLDQAGGSLPLSCAASGNTFYPNAMGWYRQAPGKERELVAAITTSGGTTYYADSVKGRFTISRDNANYTVYLQMNSLKPEDTAVYYCAAYWSRDKYDYWGQGTQVTVSS	low polyreactivity
QVQLVESGGGLDQAGGSLPLSCAASGSIFYVYTMGTYRQAPGKERELVAAISFRSGSTYYADSVKGRFTISRDNAKNTVYLPMNSLKPEDTAVYYCAKPIPRGRNQLFNYWGQGTEVTVSS	high polyreactivity
QVQLVESGGGLDQAGGSLPLTCAASGRTFWGNAMGWYRQAPGQERELVAGISKSGGTTYADSVKGRFTISRDNAKNTVYLEMNRLKPEDTAVYYCAAGGWWWTIPYEYWGQGTKVTVSS	high polyreactivity
QVQLVESGGGLDQAGGSLRLICAASGFIFVWYAMGWYRPAPGKERELVAAISRRGGGTYYADSVKGRFTISRDNAKNTVYLQMNSLKPEDTAVYYCAAGSYYRYGYDFNYWGQGTQVTVSS	high polyreactivity
QVQLVESGGGLDQAGGSLRLICAASGGTSQRYVMGWYRQAPGKERELVAAITKSGVRTYYADSVKGRFTISRDNAKNKVYLQMNSLKPEDTAVYYCAAKTPTKDRGSDFDYWGQGTQVTVSS	high polyreactivity
QVQLVESGGGLDQAGGSLRLICAASGRTFRFNTMGWYRQAPGKERELVATISRRGGSTYYADSVKGRFTISRDNAKNTVYLLMNSLKPEDTAVYYCAVYGGSYRFDYWGQGTQVTVSS	high polyreactivity
QVQLVESGGGLDQAGGSLRLICADSGSIFYIYAMGWYIHAPGKETELVASISGSGSTYYADSVKGRFRISRDNAKNTVYLQMNSLKPEDTAVYYCAVELWRVWGAYSYTYDYWGQGTQVTVSS	high polyreactivity
QVQLVESGGGLDQAGGSLRLSCAAAGITFTYYAMGWYRPAPGKERELVASITIGGGSTYYADSVKVRFTISRDNAKNTVYLQMKSLKPEDTAVYYCNAAFSVRHLYRYDYWGQGTQVTVSS	low polyreactivity

Sequence	polyreactivity (PSR sort gate)
QVQLVESGGGLDQAGGSLRLSCAASARIFAAYAMGWYRQAPGKEREFVAAITTAGSTHYADSVKGRFTISRDNAKYTVYLQMNSLKPEDTPVYYCAADGIARAYVLFDAYDFLYDYWGQGTQVTVSS	low polyreactivity
QVQLVESGGGLDQAGGSLRLSCAASGFIFDYYAMGWYRQPPWKERELVAAITSGDSTNYADSVKGRFTISRDNAKNTVYLQMNSLKPEDTAVYYCATRFGDRTVSYDSWGQGTQVTVSS	low polyreactivity
QVQLVESGGGLDQAGGSLRLSCAASGFIFFQYAMGWYRQAPGKERELVAAISGSGVTTYYADSVKGRFTISRDNAKNTVYLQMNSLKPEDTAVYYCAADTPPYYAYWDVSFEYYYWGQGTQVTVSS	low polyreactivity
QVQLVESGGGLDQAGGSLRLSCAASGFIFYRYAMGWYRQAPGKERELVAAINWSGGGTYYADSVKGRFTISRDNAKNTVYLQMNSLKPEDTAVYYCAAVRSFRGSYWYEYWGQGTKVTVSS	high polyreactivity
QVQLVESGGGLDQAGGSLRLSCAASGFISPWYAMGWYRPAPGKERELDAAIDWSGGSTYYADSVKGRFTISRDNAKNTVYIQMKSLKPEDTAVYYCAARYYTAAVRAGRVRMYSWGQGTQVTVSS	high polyreactivity
QVQLVESGGGLDQAGGSLRLSCAASGFTFPIYAMGWYRQAPGKERELVAAITTRGGRTYYADSVKGRFTISRDNAKNTVYLQMNSLKPEDTAVYYCNAQGYAYRLWFGYWGQGTQVTVSS	high polyreactivity
QVQLVESGGGLDQAGGSLRLSCAASGFTFYPYTMGWYRQAPGKERELVADITYDSTYYADSVKGRFTISRDNAKNTVFLQMNSLKPADTAVYYCNATGYSVSRSAYWYGWYDYWGQGTQVTVSS	low polyreactivity
QVQLVESGGGLDQAGGSLRLSCAASGIIFRSNAMGWYRQAPGKERELVAAITGRGTRTYYADSVKGRFTISRDNAKNTVYLQMNSLKPEDTAVDYCNTGQTRGMGYWGQGTQVTVSS	high polyreactivity
QVQLVESGGGLDQAGGSLRLSCAASGIIFRWYAMGWYRQAPGKERELVAAITASGGSTYYADSVKGRFTISRDNAKNTVYLQMNSLKPEDTAVYYCNKLRLANIQTDGYYYWGQGTQVTVSS	high polyreactivity
QVQLVESGGGLDQAGGSLRLSCAASGIIITIYAMVWYRQAPGKERELVAAISFSVGSTYYADSVKGRFTISRDNAKNTFFLQMNSLKPEDTAVYYCAAESYTYPFEYWGQGTQVTVSS	high polyreactivity
QVQLVESGGGLDQAGGSLRLSCAASGITFDFNDLGWYRQAPGKERELVACINGNSDSTYYADSVKGRFTISRDIAKNTVFLQMNSLKPEDTAVYYCNVPTVRYRYDSWGQGTQVTVSS	low polyreactivity
QVQLVESGGGLDQAGGSLRLSCAASGITFGFYTMGWYRQAPGKERELVAAITSGGSTSYADSVKGRFTISRDNAKNTVYLQMNSLKPEDTAVYYCAADYLYPFPPYQYWKQSYDYWGQGTQVTVSS	low polyreactivity
QVQLVESGGGLDQAGGSLRLSCAASGITFPYYAMGRYIQAPGKERELVADITSGGSTNYADSVKGRFTISRDNAKNTGYLQMNRLKPEDTAVYYCAADWYVIYDYWGQGTQVSVSS	low polyreactivity
QVQLVESGGGLDQAGGSLRLSCAASGLIFVRYAMGWYRQAPGKERELVATISARGASTYYADSVKGRFTISRDNAKNTVYLQMNSLIPEDTAVYYCANRGYYSRFYSYGYWGQGTEVTVSS	high polyreactivity
QVQLVESGGGLDQAGGSLRLSCAASGLILRRYDMGWYRQAPGKERELVAAISGSGGRTYYADSVKGRFTISRDNAKNTVYLQMNSLKPEDTAVYYCAAEYSYYYDQYSYDYWGQGTQVTVSS	high polyreactivity
QVQLVESGGGLDQAGGSLRLSCAASGNTLNYYTMGWYRQAPGKEREFVAAISWRGSRTYYADSVKGRFTISRDNAKNTVYLQMNRLKQEDTAVYYCATARYGYYGWTPYGDYIFDYWGQGTQVTVSS	high polyreactivity
QVQLVESGGGLDQAGGSLRLSCAASGRIFGFYAMGWYRQAPGKERELVAAITINTGSTSYADSVKGRFTISRDNAKNTVYFQMNSLKPEDTAVYYCATDAAAPKYDYWGQGTQVTVSS	low polyreactivity
QVQLVESGGGLDQAGGSLRLSCAASGRIFLPNAMGWYRQAPGKEMEFVASISWSGGSTYYADSVKGRFTISRDYAKNTVYLQMNSLKPEDTAVYYCNARFGKRYYYWGQGTQVTVSS	low polyreactivity
QVQLVESGGGLDQAGGSLRLSCAASGRIFVIIAMGWYRQAPGKERELVAAISWTGDTTYYADSVKGRFTISRDNAKNTVYLQMNSLKPEDTAVYYCAAEGYYIQSRTYSSDRYDYWGQGTQVTVSS	low polyreactivity
QVQLVESGGGLDQAGGSLRLSCAASGRIFYPYTMGWYRQAPGKERELVAAISSTGRTNYADSVKGRFTISRDNAKNTVYLQMNSLKPEDTAVYYCAKRYRKYSLGPPGNDYWGQGTQVTVSS	high polyreactivity
QVQLVESGGGLDQAGGSLRLSCAASGRIFYQNAMGLSRQAPGKERELVAAITSSGVSTYYADSVKGRFTISRDNAKNTVYLQMNSLKPEDTAVYYCAAYRVGYGGYSYYYWGQGTQVTVSS	high polyreactivity

Reference: the nanobody polyreactivity screen of Harvey et al. (2022)
